Values quoted from earlier work, collected in patent publication US5972698A, “Tryptase inhibitor” (Novartis Corporation, priority 1993, dated 1999).

B1: ovomucoid inhibitor: proteinase inhibitor derived from non-human species (protein, UniProt P01005 25-210, looked up)
Ovomucoid: AEVDCSRFPNATDKEGKDVLVCNKDLRPICGTDGVTYTNDCLLCAYSIEFGTNISKEHDGECKETVPMNCSSYANTTSEDGKVMVLCNRAFNPVCGTDGVTYDNECLLCAHKVEQGASVDKRHDGGCRKELAAVSVDCSEYPKPDCTAEDRPLCGSDNKTYGNKCNFCNAVVESNGTLTLSHFGKC
B2: soybean trypsin inhibitor: printed as 'soybean and lima bean trypsin inhibitor' (protein, UniProt P01070 25-205, looked up)
Trypsin inhibitor A: DFVLDNEGNPLENGGTYYILSDITAFGGIRAAPTGNERCPLTVVQSRNELDKGIGTIISSPYRIRFIAEGHPLSLKFDSFAVIMLCVGIPTEWSVVEDLPEGPAVKIGENKDAMDGWFRLERVSDDEFNNYKLVFCPQQAEDDKCGDIGISIDHDDGTRRLVVSKNKPLVVQFQKLDKESL
B3: mucus-proteinaseinhibitor: naturally occurring antiproteinase (protein, UniProt P03973 26-132, looked up)
Antileukoproteinase: SGKSFKAGVCPPKKSAQCLRYKKPECQSDWQCPGKKRCCPDTCGIKCLDPVDTPNPTRRKPGKCPVTYGQCLMLNPPNFCEMDGQCKRDLKCCMGMCGKSCVSPVKA

Tested on: Human tryptase

Molecule	inhibition of tryptase (literature)
B1	not affected
B2	not affected
B3	not inhibited
